Drawing on the NTF2 design screens of Basanta et al. (2020), this text covers protease stability score for 47 sequences.

This data set in a line: protease stability score; higher = more stable; yeast display proteolysis, trypsin and chymotrypsin.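 Note: relative to predicted unfolded state with 0 unfolded-like and 1 meaning tenfold more protease.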
With “DETEEEARHVFELIIEYHLTGDWDKWLRMFDPHVKLVVNGRDNHGREHAVHRLKEFLRQWRIHDVEVKSVDLQGDKVRVDGRLDGIVNGVREKTEVTLSLIVVDGKIKSHEVRIH”, the protease stability score stood at 1.51.
To “DEEDRRYEHWFKLFLEIFLTGDFDQWKKLLDPHVRVDVNGQERVGRDQISEAMRRLLEILGVDHIEVEEVHLQGEKVNLNTQENVNGVETHSRIHVIVINGRLRHSKMDIN” belongs 1.29; to “DEEERDARRVYEHLIENWETGNFDRVLELFDPHVKLIFNGQEFIGRDDVSKEINRIDHEHIDDFRLHSIRIVDGRIEIDGRIRFTLHVNGKTVHFDRKLILIMRKVDGRWIITSLHIR”, 2.09.
With “DELQHELERFLEEESRMLKTGDEKRLLELADPDVRVHIDGVDMVGWEALETMWRILKERLGADHVEDVKIRHVDLQGDKADMDVEFDMIQGDKKHYLRSRLIVTKINGRWLLRYVIIK” the figure was 1.75; with “SEEEQELYRTAKLMLESMTTGNEELNKRLADPNVRIHWNGVENHGWRIFRENLEELRIHLKDWRFRRFDLYNGVALLDIEVQIDIEIGDKRIEYETQTILLLFVVNGRIKSISMRIL”, 1.07; with “SDIDNEADNLLRELSEVHQTGDWKTLLELADPNVQLIVNGRDLHGWEHLARRFTELRIHHVDHRIKHIHSYDGRVDLDGRLHYDGEINGRRDILHHEVSVHTKKIDGRWIISNIQIN”, -0.21.
To “DESERMVLELARLFLEDLLTGNEDLMSHLADPHAKNDINGVDLHGMEVISKHLSELRLRVLDITEERVQGDKVRIKVEVVIQYGDKWRETEVDLELYIVNGRLKSQIWTIR” belongs 1.08; to “SEDVEFIVRFIERFWHLLLTGNEEEFEKLLDPHVRIEINGVNLVGREEVTDWFKHIRIDDMRMIFRHSSVVDGRVNVIGALRRDGHINGQRVTEERDTRLHLYKVNGQWFLTEIELH”, 1.5; to “DEEREIIETFFRESLEVIKTGDWKTFDDLLDPRARLNIGDKDYHGRHEIVRQWHKQFKDLGVDHIENKDLRIFDGKIETHFDLEVGDKRIHLEFHATKIDGRWLFHEIRVQ”, 1.97.
Regarding “SEDHDLVREVARLYIDAVKTGDEDLIRFLFDPHVRSEINGVQLHGWEEVFRFWQELRVHHIDLHSVHVEFQGDKAINRNEVHYNGEYGDKRNRYRLDLRIILHKIDGRWIVEEVHLITD”, the protease stability score amounted to 1.45.
To “DEEEEKDRILVEIWKRLVLTGDEEELLNLADPEARQTVHFNGKEVRNVGMERVIEHNREYLRLMGVDHITVDRSRVVNGRVENHHRVFVGEKEIRFEIEVTIINGRLRSVTIRVR” belongs 0.379; to “DDLEEATEFYIKLYYEAVETGDERLITELADPNMRIDWNGREIHGREEFVRRLREMRVSRIEVQHVDKYGDKLHIHVRIIIEVGDKKIESSSHLISLKFNGRWLLKSMWIK”, 1.39.
With “DELRTHAKKMILILFHHLLTGDEEWLHRFMDPSTRRDVGDKELHGMEQITHDIVKEIFLRGAEIHITIRTFRFQGNYLDANIEIKIIVNGQEIHFEVLIHIVKVDGVWLVRSMRFH” the figure was 1.43; with “DDLERLVRELLDLWKRALKTGDEDVLSKMFDPDVRLTINGQVSVGREDVLRLWQEWRVDRMEERDVTVQGDKIHMDGHSHVEYDGRRIEVRHEIILVIVNGRAKSQEVRIR”, 1.62.
To “DEDKQWIEEFIELHLRELETGDEQRVDENLDPNVKLRINGKEVHGRERISHLLKELLRKVKNLKVELHDIRVQGDFLEIEGTLRIGDKELDLYVIAHKVNGKWIVKERRIH” belongs 1.23; to “DEKDELMERIARLMMEYLDTGDEENLNKLADPNVKIDIRIGDKVIDDHGMENLLHRLRHIRSNLRVHNFHAQGDFVKIDTRVTFHVNGQDIHHTVEVRLFIVNGKIHRIEFIFR”, 2.6.
In turn, “DEEEHEEKRLLEMHLHYLATGDEENLKKLLDPNVKLVVNGREIHGRERIIEFIRRLIEMWGVDRIDSRIRHVTSQGDKIRLEGEWIVGEKVIDTRLLAVKVDGRWVEETLILK” came in with a protease stability score of 2.13.
To “DEEEKEDHKMLHDFIHLWLTGDEEDWSHLADPRTRLILIQGDKVIDRHGMELASEELRRILEEMRVDDFKVEHVEVINGKSKVHGKTDVTFNGKREIIDIHIELHVVNGRMKTVKMVWI” belongs 0.927; to “DELEKYVLDMVMLWIRSHSTGDEDALRRLADPHTRVIINGKELHGMDDVRRHIEEIRIHEEHVHVERVEIQGNKAIVDTSRHIWIDFNGQNIRVDVKTRFHLEKIDGVWYLKEVRIG”, 1.4.
“DEEDRELEEMLELIIHAFKTGDEEIMKRLFDPNTRIRINGREEIGWEHAVKILREWRFRHVILRRKHKQGDKLHYEFEVHGHFDGQQDSVHVRILILKVNGRWIITEYIFV”: the protease stability score was found to be 2.51.
For the sequence “DEDLEESHYAIEYLIRLFETGDWDTVDRFFDPRTRLRVNGKNHHGREEVTEFVEDILKRYDHKQFTFTHVEFQGEKIILHGKLHLDINGVHFEHDFILIIKKIDGRWYVDEIHIS”, the protease stability score is 1.39.
For “SHLEEEAKEAHDVWLHELLTGDEHQINRLLDPHTRVHIGDKDLHGRHELVRKMVETVRRVDHYHLKIKHLRVQGDKIVSTGNYTLHINGKDIHIDTRLILTKIDGVWILEEIRVE”, the protease stability score is 1.16.
In turn, “SEHEHIAEKMSELLREIVETGDFEQLERLADPHVKLNVDGRNFHGMERFRELKERIRREFGVDHIHVEVERVEVIDGVVINHTKLIIEQGDKRRESRTTLIINKVNGQWRLDSVRVE” registered a protease stability score of 0.488.
With “DDYEKSSKVVWQILVRALETGDEEELRDLFDPHVRIQIGEFHFHGWETVHEHMRRADHIIVRDSKSRDIDHQGNKVILHVDLHIEFTYNGVERSTTFRSNMIMVKVNGKWVIEKIHLQ” the figure was 1.55; with “DEEKDIMNEWWKRIFNVFHTGDEREHDKMLDPNARFDIGDKTLHGMDDFRRFLHRADHISHFTEHHVEVQGEKLVWEGTYDGEFNGVERRFHTHEQNIIINGKVKRVFFQIR”, 0.834.
With “SEESEKLERMMRLIMHLLWTGDEETFKRLADPDTRFIYGDFEVHGREDVSRMWIKLLNELRIHSLHVEEVHTIDGRIHAKTEVDGRYNGQHERTKLELIIVIINGRIHTVEIRPK” the figure was 1.22.
With “SHDEDRLREMIERWVEFMITGDEDRLRELADPNMRIHVNGKDLHGREEYARWINELGVKHIEITHVDLQGDKIDIVTELRFDGRTHDIHIKARKIDGRWHLTEFREE” the figure was 1.34; with “DEEDEILERNFRKMLEDWKTGDEEMYSKLIDPHAKVDYNGREFVGREYAVEVWHKMGVDHIILRRSDVQGDKIKLDFESRQGDKSSNLKMESEKVNGVWLLHSVRYE”, 1.11; with “DDERRHTEKVLELWTRFLYTGDEHRMSELLDPNTQLRVGDKDLHGWHLFVHFISELIRKLGVDHLEVELKHADIINGRAELHVKFHFHTENHHTTINIIFFYEKIDGVWLIKSIEIK”, 2.04.
On to “REEEKMFTMILEIIKHSLVTGDEDLTRNLVDPNMRLEINGQEVHGREEILRVLLELRVKEMHIDDVKFQGDKAEIDGTLDIEWNGQEDHLKVEIIFRKINGRWHIESIRLE”, for which the protease stability score was found to be 1.48.
With “EEWEKAIKFAVKLYKEIMETGDEDMQSHLFDPNVRISVGNKERHGMEEVTKIMTEWRLDDHHVNHVELQGNKVSSDGEINGTFDGRRHRVRIVLIILKVNGVWRIEEVRVI” the figure was 0.162; with “DETTELTQTVSQVFLDIWRTGDEDALRHLADPNTRLEVGEKTFHGRERVTEYVSRFKNVTVHLRRVTVQGNKVHIDSEMDFNGRKSDLHVELLVVDGRLKEIHVDIRWL”, 1.84; with “DEETNLSKLVMEISLELLETGDEEHIHRFVDPHARTILFIDGREEQVHGREQASKWIMWTVKFLGVDHIEVEDTKIVNGVAHLNIRMEVGDKRLTSHFTSEKVNGKWLIKDIRIRID”, 1.94.
With “DEKTEKEQRWFEEILHAILTGDEEFLLRNADPNTRSHFNGRDVHGMELLSEIWTKHVEDLGFDHAHIRSVKVFDGRFILNMQIHVNGVELDVHLIYDVVDGVVKRVIVETHKH” the figure was 0.442; with “SEDEREFEEFVRFFFKMMVTGDEDDLIRLLDPHAKFEINGKILHGWRHLLEEIREMGIKHWKIRDIKVQGEKVENELELEVGEKRFHIRLIATKVNGKWHVKEFSIHEI”, 2.29; with “DDEERIASFVIKMWLHSYLTGDENLLREFLDPNVKVRNEVNGRDWTHHGREALLWLLEFLGVKHVEHVRLHDLLVVNGRATSREIYHGKIGDKRTTFHFTLYIIRIDGVVKKFEIELE”, 1.3.
With “DEEEEMSKELAELLVKAFVTGDWEEMTSMADPRTRTDVNGKDLHGWDESLRVIEELLRKMGIKHSNIHTVRVQGNWIHIDIRVIVGDKYHEVEIRVLVVNGRLKYLEYRIK” the figure was 1.98.
In the case of “SEDEKFARHVVKLWEDNYKTGNFEELLHMMDPHVKIKVNGRELHGWEELEKILTEFHERFRNQKLDIKLRDLKIQGNYVHADMELTIHYNGQEHREQVHLVVRKVNGRWEIEKITFD”, the protease stability score came to 0.813.
With “SEDEEFAEKYLKEWVERVRTGDEDHLWKLLDPDPRIRIDGKEIIGREIAVKHMSEIRPTSIRLTSFHSQGDKINVDGETDGEFNGVRQRQRVIYIILKVDGRWLLHSVEFK” the figure was 1.05; with “DEEEERARRDLFIWAHAVKTGDEKRYKELFDPNDKLDINGQEIHGMESVVKLIRHIRIEDIHLHLHDIRLIGDKLHVDGQIRQHTHVGDKRVHDTINVNDIVHKVNGQWHWKSIIYH”, 1.03.
To “SEEEDTMRHLLHLLIEWELTGDWKNWQKLADPRTRIEINGRELHGRETYAEFIREVLEQFKNLVIHDFIMHDVKVFDGRVIVDGYVDTEINGVRTHIRVEFILIVVNGKLRRVSRIVR” belongs 1.57; to “SEEDELYRHIAEHLLHLLHTGNEEILDHLLDPHVKLEINIGDKRDEFIGRHSLREWLSRFKNVKLHVHDDKVINGVNHVDGTLDINGRRTHIEIHLHVYNGKVRRLQFNIH”, 1.62.
With “DENTENEHNIAEVIIEAFETGDWEMLWRMADPNTLLEIIIGDKRMEIHGMHIFVKYWVEFQDRFKNVRISLKSYHVYDGRIELHMNLNFNGRRVEEEVLIYFINGRVKRIHIRHH” the figure was 2.8; with “DEHDKHVHEMAERIMRSWHTGDEDTFHKMADPNVRVEIFVNGKNIIRHGREVWKHELERYDHVELRIKSMDAQGDFVHIDGELTINIGDKKHSTTLRIELEFINGRLKRISVHIH”, 1.05; with “SELEEKAREMLTLLHKFWRTGNEEFFTKLFDPDMKLTVGDKEYIGMEDVTEYFVKWTREARLTDQETTDIEYYDGRLRIHVEMDVKQGDKRRKLESIIILLKVDGRWFATKVEIR”, 0.928.
Sequence “SEEDDQAEEFARKMITDFLTGNWKKMMDLFDPNVRLRWHVDGRDKHHIGREVVSEILRRYVEEIRIHSISIESVENYDGVSIVHSHYEWEVNGQKRETHVLLEFVIINGRARSISIHIH” gave a protease stability score of 1.11.
With “DEVEHIVRWMVELLMRALQTGDEETLTRLMDPHARHEIDGKESHGREFLDTLKRRFKNIQWHSIEIEDYKHYDGRVEIHGILHVRVGDKRHEIHIEFVIQKIDGRWHVDRLHLK” the figure was 1.55.
